Reference: paper PMC11404569, “ECT2 peptide sequences outside the YTH domain regulate its m6A-RNA binding”

Key:
Conditions in all cases: protein: recombinant; tags: N-terminal His-SUMO; label: 5' FAM
ECT2-108 YTH mut = target: T1, ECT2-108 YTH mut (Arabidopsis thaliana, UniProt Q9LJE5 108-667, W464A;W521A;W526A); test: EMSA; up to 500 nM; EMSA: 10 nM FAM-RNA; binding buffer 10 mM HEPES pH 8.0, 50 mM KCl, 1 mM EDTA, 0.05% Triton X-100, 5% glycerol, 10 µg/mL salmon DNA, 1 mM DTT, 40 U/mL RNasin; 20 min on ice; native 8% acrylamide TBE gel at 4°C
T1 sequence: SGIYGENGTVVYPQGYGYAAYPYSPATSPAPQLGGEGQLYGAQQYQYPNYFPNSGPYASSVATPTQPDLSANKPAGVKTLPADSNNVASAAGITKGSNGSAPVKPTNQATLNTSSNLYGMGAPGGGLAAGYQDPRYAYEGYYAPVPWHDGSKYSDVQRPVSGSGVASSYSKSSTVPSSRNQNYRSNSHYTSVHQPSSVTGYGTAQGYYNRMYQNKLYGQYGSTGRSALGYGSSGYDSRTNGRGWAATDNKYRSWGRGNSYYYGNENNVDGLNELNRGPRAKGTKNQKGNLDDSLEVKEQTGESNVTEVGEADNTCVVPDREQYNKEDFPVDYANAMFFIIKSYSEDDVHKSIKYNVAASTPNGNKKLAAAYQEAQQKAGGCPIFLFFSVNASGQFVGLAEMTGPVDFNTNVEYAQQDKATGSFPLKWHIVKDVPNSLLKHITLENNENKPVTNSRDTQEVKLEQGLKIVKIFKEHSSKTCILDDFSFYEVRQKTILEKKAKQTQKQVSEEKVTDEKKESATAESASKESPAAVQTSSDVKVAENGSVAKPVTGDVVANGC

ECT2-303 YTH mut = target: T2, ECT2-303 YTH mut (Arabidopsis thaliana, UniProt Q9LJE5 303-667, W464A;W521A;W526A); test: as above
T2 sequence: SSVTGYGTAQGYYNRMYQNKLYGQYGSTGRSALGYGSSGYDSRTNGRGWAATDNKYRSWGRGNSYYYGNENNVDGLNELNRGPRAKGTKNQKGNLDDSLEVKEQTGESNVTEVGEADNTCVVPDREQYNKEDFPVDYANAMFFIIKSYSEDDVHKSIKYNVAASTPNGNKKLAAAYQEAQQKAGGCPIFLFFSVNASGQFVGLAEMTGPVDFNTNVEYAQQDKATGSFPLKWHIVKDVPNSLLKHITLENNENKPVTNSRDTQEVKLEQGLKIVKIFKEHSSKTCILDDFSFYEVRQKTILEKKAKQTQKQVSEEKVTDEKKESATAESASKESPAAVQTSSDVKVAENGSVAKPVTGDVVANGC

ECT2-Δα0 = target: T3, ECT2-Δα0 (Arabidopsis thaliana, UniProt Q9LJE5 1-667, del419-427); test: EMSA; close to full length, doublet kept; EMSA: 10 nM FAM-RNA; binding buffer 10 mM HEPES pH 8.0, 50 mM KCl, 1 mM EDTA, 0.05% Triton X-100, 5% glycerol, 10 µg/mL salmon DNA, 1 mM DTT, 40 U/mL RNasin; 20 min on ice; native 8% acrylamide TBE gel at 4°C
T3 sequence: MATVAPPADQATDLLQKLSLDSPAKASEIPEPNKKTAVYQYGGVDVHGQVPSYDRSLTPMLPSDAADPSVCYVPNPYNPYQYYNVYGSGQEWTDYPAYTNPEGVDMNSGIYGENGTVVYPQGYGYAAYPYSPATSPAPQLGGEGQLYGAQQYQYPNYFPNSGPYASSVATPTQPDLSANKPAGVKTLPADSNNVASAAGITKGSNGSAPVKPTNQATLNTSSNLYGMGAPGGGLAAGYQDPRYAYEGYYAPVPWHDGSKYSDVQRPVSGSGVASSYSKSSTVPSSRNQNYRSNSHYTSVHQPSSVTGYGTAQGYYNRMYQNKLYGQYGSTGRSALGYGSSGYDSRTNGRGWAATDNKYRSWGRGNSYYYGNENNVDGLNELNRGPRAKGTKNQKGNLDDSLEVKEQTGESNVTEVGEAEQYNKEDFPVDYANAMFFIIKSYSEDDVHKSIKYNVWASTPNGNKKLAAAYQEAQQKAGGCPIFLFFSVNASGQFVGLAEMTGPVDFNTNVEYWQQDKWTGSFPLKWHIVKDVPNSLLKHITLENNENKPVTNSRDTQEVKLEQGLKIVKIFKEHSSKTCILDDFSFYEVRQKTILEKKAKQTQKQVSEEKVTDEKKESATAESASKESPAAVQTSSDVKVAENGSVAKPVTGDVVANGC

ECT2-Fl mut (YTH mut) = target: T4, ECT2-Fl mut (YTH mut) (Arabidopsis thaliana, UniProt Q9LJE5 1-667, W464A;W521A;W526A); test: EMSA; EMSA: 10 nM FAM-RNA; binding buffer 10 mM HEPES pH 8.0, 50 mM KCl, 1 mM EDTA, 0.05% Triton X-100, 5% glycerol, 10 µg/mL salmon DNA, 1 mM DTT, 40 U/mL RNasin; 20 min on ice; native 8% acrylamide TBE gel at 4°C
T4 sequence: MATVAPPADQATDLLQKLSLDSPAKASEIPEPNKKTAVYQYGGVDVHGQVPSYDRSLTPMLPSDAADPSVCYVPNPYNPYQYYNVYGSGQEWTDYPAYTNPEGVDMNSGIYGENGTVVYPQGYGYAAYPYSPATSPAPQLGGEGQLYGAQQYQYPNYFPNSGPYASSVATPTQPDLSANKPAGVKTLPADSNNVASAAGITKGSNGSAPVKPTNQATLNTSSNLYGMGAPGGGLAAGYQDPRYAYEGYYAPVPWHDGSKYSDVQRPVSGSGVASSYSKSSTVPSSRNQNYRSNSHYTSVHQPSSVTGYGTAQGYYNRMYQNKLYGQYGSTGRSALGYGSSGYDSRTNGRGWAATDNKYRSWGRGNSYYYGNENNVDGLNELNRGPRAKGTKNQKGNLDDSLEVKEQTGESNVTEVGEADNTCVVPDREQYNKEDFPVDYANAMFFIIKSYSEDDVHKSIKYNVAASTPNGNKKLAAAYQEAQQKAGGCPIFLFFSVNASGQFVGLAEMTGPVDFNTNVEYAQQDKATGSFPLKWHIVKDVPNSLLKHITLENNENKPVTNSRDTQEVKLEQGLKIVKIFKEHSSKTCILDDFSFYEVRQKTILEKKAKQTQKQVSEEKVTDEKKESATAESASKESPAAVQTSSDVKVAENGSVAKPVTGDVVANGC

AUGGGCCGUUCAUCUGCUAAAAGGACUGCUUUUGGGGCUUGU (ssRNA, m6A at position 25; thiol-protected 3' bases (*G*U)) [Probe I m6A]
binding result (ECT2-108 YTH mut): no binding | binding result (ECT2-303 YTH mut): no binding | binding result (ECT2-Δα0): binds | binding result (ECT2-Fl mut (YTH mut)): no binding
